From US20160312197 come the findings set out here.

What all share (test): cell_activity
Data set [1] has as its target CCR5 ZFN SBS 8266, wild-type ZC linker (FokI) (Artificial Sequence) (UniProt P14870).
For data set [2], the system named is CCR5 ZFN, L7a linker (FokI) (Artificial Sequence).
Data set [3] deals with CCR5 ZFN, L6a linker (FokI) (Artificial Sequence).
Data set [4] deals with mROSA-targeted ZFN pair, Wt/Wt linkers (Artificial Sequence). To be noted: Neuro2A, mock 0.4.
Data set [5] relates to mROSA-targeted ZFN pair, Wt/L7a linkers (Artificial Sequence). To be noted: Neuro2A, mock 0.4.
Data set [6] relates to rat IgM-targeted ZFN pair, one L7a linker (Artificial Sequence). To be noted: rat C6 cells.
Data set [7] has as its system rat IgM-targeted ZFN pair, ZC linkers (Artificial Sequence). As to conditions: rat C6 cells.
Where [8] appears, read: no cleavage at this spacing, binding not measured.

CCR5 ZFN SBS 8266, wild-type ZC linker (FokI) (Artificial Sequence), sequence (P14870 other isoform, or with tags, fused parts or gaps): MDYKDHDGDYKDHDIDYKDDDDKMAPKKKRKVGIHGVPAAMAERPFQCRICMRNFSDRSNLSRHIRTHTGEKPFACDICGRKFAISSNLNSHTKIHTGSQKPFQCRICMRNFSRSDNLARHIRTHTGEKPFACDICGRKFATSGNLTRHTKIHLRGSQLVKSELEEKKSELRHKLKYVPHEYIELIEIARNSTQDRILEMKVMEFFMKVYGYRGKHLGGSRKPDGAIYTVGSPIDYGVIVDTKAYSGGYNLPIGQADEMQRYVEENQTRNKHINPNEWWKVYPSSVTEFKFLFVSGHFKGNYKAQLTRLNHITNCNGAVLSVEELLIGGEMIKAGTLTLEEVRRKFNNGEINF
CCR5 ZFN, L7a linker (FokI) (Artificial Sequence), sequence (chain, as listed by the source): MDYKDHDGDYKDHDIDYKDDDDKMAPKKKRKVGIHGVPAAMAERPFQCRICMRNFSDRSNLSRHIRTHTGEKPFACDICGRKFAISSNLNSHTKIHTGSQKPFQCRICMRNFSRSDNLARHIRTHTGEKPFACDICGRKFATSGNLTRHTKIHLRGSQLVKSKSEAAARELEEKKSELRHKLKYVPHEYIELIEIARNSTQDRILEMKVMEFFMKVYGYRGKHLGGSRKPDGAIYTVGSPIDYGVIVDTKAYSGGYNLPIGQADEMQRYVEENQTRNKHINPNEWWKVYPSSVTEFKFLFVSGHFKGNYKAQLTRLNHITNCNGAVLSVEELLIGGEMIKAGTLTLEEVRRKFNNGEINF
CCR5 ZFN, L6a linker (FokI) (Artificial Sequence), sequence (chain, as listed by the source): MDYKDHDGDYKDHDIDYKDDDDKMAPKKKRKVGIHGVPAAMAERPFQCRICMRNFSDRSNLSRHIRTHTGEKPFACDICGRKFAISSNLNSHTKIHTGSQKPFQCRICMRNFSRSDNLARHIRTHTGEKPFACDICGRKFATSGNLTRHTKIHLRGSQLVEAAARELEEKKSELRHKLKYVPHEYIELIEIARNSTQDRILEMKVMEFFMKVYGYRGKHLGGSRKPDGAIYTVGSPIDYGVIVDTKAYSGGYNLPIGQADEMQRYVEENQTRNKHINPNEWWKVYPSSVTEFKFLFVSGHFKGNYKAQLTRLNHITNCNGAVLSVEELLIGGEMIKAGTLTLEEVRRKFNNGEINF

With CCR5 ZFN sites, 6 bp gap, the activity in data set [1] (ZFN pair, average of 2) was found to be 11.1 % NHEJ; in data set [2] (ZFN pair, average of 2), 31.8 % NHEJ; in data set [3] (ZFN pair, average of 2), 25.4 % NHEJ.

In the case of CCR5 ZFN sites, 8 bp gap, the activity came out at 0 % NHEJ in data set [1] (setting [8]); 6.1 % NHEJ in data set [2] (ZFN pair, average of 2); 0 % NHEJ in data set [3] (setting [8]).

Regarding CCR5 ZFN sites, 7 bp gap, the activity in data set [1] (setting [8]) is 0 % NHEJ; in data set [2] (ZFN pair, average of 2), 39.6 % NHEJ; in data set [3] (ZFN pair, average of 2) it was 5.1 % NHEJ.

Consider mROSA target, 6 bp gap, for which the activity in data set [4] was determined as 22.6 % NHEJ; in data set [5] it was 7.5 % NHEJ.

Turning to rat IgM target, 6 bp gap, the activity in data set [6] was 2.43 % NHEJ; in data set [7] it was 1.93 % NHEJ.

CCR5 ZFN sites, 4 bp gap: the activity in data set [1] (ZFN pair, average of 2) was 1.2 % NHEJ; in data set [2] (setting [8]), 0 % NHEJ; in data set [3] (setting [8]) it was 0 % NHEJ.

In the case of CCR5 ZFN sites, 5 bp gap, the activity in data set [1] (ZFN pair, average of 2) worked out at 35 % NHEJ; in data set [2] (setting [8]), 0 % NHEJ; in data set [3] (ZFN pair, average of 2) it was 39.3 % NHEJ.
